In patent US20110229922A1, “SCREENING ASSAYS FOR THE IDENTIFICATION OF BACE2 INHIBITORS” (priority 2008, published 2011):
No end group written: not given here. MR121 = fluorophore label at the N-terminus

Tested on: Min6 cells
Assay: Proliferation assay in Min6 cells (EdU, confocal microscopy)
Type: cell-based
Conditions: 48 hours, p<10-6, FIG. 5a
Procedure: 50′000 MING B1 cells per well were seeded in a 96-well plate using standard trypsinization method. The following day, serum-supplemented complete medium (described earlier) was removed and replaced by serum-free and low glucose medium (Invitrogen) supplemented with the compound as follows: 10 nM exendin-4 (Sigma-Aldrich) as a positive control was added to the cells every 12 h, to avoid degradation. […] As an absolute positive control cells were also grown in FCS supplemented standard media. Cells were incubated for 48 hours.
After this incubation, medium was discarded and replaced by the serum-supplemented medium containing 10 nM EdU (Invitrogen) and incubated for 1 h at 37° C. […]
Spinning-disc confocal fluorescence microscopy of the 96-well plate has been performed on the high-throughput automated imaging system Opera™ QEHS (PerkinElmer Cellular Technologies, Hamburg, Germany). […] In each well, typically 12 pairs of scanning images were recorded through a UAPO 20×NA 0.7 water immersion objective lens (Olympus) and optimized filter sets by 2 independent high quantum-efficiency 12 bit CCD cameras (1.3 mega pixels monochrome). […]
Confocal micrographs were analyzed using the proprietary software environment of PerkinElmer's Opera (Acapella 1.8, PerkinElmer Cellular Technologies, Hamburg, Germany). […]

Substance	proliferation rate compared to basal proliferation rate of starved cells
exendin-4	highly significant proliferation increase

Biological target: T1, BACE2 (Homo sapiens, UniProt Q9Y5Z0)
T1 construct: made in house; host or cells: E. coli BL21(DE3)
T1 sequence (Q9Y5Z0 20-465): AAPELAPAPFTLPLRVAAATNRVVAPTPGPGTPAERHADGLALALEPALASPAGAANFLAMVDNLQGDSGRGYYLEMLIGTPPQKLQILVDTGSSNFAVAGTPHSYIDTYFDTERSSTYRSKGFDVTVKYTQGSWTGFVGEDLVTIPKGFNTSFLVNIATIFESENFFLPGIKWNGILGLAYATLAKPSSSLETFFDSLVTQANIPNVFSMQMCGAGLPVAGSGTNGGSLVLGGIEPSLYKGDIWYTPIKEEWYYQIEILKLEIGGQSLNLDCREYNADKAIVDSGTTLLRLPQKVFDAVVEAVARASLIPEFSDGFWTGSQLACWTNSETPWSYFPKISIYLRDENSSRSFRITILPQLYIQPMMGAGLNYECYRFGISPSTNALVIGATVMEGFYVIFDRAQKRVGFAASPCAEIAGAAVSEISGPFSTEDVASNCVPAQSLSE
Assay: FRET peptide cleavage assay, BACE2 activity on peptide substrates
Type: biochemical
Conditions: pH 4.5, substrate 5 μM, FIG. 7 and FIG. 9
Procedure: The FRET assay was performed essentially as described in Grüninger-Leitch et al. [Substrate and inhibitor profile of BACE (beta-secretase) and comparison with other mammalian aspartic proteases. Journal of Biological Chemistry (2002) 277(7) 4687-93]. In summary, a peptide is designed that is cleaved by the protease. The peptide is labelled with dabsyl at the N terminus and Lucifer Yellow at the C-terminus, such that for an intact peptide the Lucifer Yellow fluorescence is quenched by the dabsyl. When the peptide is cut by BACE2, the quenching is removed and a fluorescent signal is generated.
The assay was performed as described in Grueninger et al. 2002 at pH 4.5 using a substrate concentration of 5 μM. All FRET-peptides had the format described.
(§1) BACE2 enzyme ectodomain was prepared as described in Ostermann et al [“Crystal Structure of Human BACE2 in Complex with a Hydroxyethylamine Transition-state Inhibitor.” Journal of Molecular Biology 355 (2006) 249-261].

Substance	BACE2 activity against FRET peptide substrate
dabsyl—QTLEFLKIPS—LucY: FRET peptide based on the TMEM27 sequence, dabsyl at N terminus and Lucifer Yellow at C-terminus (dabsyl-QTLEFLKIPS-{Lucifer Yellow})	high activity
dabsyl-NSLEFLGIQP-lucifer yellow: FRET peptide based on the sequence of ACE2 at the site equivalent to the BACE2 cleavage site in TMEM27 (dabsyl-NSLEFLGIQP-{Lucifer Yellow})	efficiency greater than that of the TMEM27 substrate

Biological target: BACE1 (Homo sapiens, UniProt P56817)
Assay: FRET peptide cleavage assay, BACE1 activity on peptide substrates
Type: biochemical
Conditions: pH 4.5, substrate 5 μM, FIG. 7

BACE1, sequence (P56817 46-501, species assumed): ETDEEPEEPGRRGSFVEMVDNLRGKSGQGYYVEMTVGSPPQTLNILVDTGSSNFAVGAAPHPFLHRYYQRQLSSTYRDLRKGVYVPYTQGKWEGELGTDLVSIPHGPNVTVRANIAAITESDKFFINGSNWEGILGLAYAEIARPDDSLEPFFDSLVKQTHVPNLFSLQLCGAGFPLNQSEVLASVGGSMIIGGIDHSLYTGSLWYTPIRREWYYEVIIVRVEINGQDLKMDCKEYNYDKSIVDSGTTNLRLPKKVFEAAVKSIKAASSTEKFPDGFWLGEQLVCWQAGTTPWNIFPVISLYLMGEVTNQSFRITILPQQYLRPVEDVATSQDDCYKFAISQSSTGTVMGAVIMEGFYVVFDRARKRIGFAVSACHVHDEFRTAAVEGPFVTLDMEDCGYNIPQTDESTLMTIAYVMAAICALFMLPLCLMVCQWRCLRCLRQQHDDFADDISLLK

BACE1 activity against FRET peptide substrate	Substance
insignificant activity	dabsyl—QTLEFLKIPS—LucY: FRET peptide based on the TMEM27 sequence, dabsyl at N terminus and Lucifer Yellow at C-terminus (dabsyl-QTLEFLKIPS-{Lucifer Yellow})

Biological target: T1, BACE2
Assay: MR121-peptide cleavage assay
Type: biochemical
Design: scale not given here
Conditions: substrate peptides labelled with MR121 at N-terminus and tryptophan at C-terminus
Procedure: In a related assay, a peptide was devised with the same sequence, which was labeled at the N-terminus with MR121 and at the C-terminus with Tryptophan.
Substrate peptides derived from TMEM27 with activity in the MR121-peptide cleavage assay.
as §1

Substance	Relative activity
C QTLEF W: Substrate peptide derived from TMEM27 for MR121-peptide cleavage assay (MR121-CQTLEFW)	21
C QTLEFLKI W: Substrate peptide derived from TMEM27 for MR121-peptide cleavage assay (MR121-CQTLEFLKIW)	96
C QELEFLKI W: Substrate peptide derived from TMEM27 for MR121-peptide cleavage assay (MR121-CQELEFLKIW)	100
C QTLEFL W: Substrate peptide derived from TMEM27 for MR121-peptide cleavage assay (MR121-CQTLEFLW)	32
C QTLEFLK W: Substrate peptide derived from TMEM27 for MR121-peptide cleavage assay (MR121-CQTLEFLKW)	62
C LEFLKI W: Substrate peptide derived from TMEM27 for MR121-peptide cleavage assay (MR121-CLEFLKIW)	24
C QTLEFLKIP W: Substrate peptide derived from TMEM27 for MR121-peptide cleavage assay (MR121-CQTLEFLKIPW)	75
C QTLEFLKIPS W: Substrate peptide derived from TMEM27 for MR121-peptide cleavage assay (MR121-CQTLEFLKIPSW)	91
C TLEFLKI W: Substrate peptide derived from TMEM27 for MR121-peptide cleavage assay (MR121-CTLEFLKIW)	28
